From article PMC5916898, “Global profiling of protein–DNA and protein–nucleosome binding affinities using quantitative mass spectrometry”

T1: FOXL2 (Homo sapiens, UniProt P58012)
T1 sequence: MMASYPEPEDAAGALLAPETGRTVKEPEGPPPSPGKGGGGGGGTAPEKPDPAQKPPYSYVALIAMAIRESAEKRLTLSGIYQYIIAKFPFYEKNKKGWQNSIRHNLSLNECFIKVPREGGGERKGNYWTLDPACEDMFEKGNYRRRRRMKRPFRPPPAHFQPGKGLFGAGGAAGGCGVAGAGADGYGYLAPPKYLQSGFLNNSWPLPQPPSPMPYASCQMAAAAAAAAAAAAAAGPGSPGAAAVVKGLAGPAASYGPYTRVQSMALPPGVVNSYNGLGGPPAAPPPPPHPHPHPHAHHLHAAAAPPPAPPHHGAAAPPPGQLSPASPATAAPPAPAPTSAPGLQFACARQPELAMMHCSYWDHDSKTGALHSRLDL

T2: ZNF281 (Homo sapiens, UniProt Q9Y2X9)
T2 sequence: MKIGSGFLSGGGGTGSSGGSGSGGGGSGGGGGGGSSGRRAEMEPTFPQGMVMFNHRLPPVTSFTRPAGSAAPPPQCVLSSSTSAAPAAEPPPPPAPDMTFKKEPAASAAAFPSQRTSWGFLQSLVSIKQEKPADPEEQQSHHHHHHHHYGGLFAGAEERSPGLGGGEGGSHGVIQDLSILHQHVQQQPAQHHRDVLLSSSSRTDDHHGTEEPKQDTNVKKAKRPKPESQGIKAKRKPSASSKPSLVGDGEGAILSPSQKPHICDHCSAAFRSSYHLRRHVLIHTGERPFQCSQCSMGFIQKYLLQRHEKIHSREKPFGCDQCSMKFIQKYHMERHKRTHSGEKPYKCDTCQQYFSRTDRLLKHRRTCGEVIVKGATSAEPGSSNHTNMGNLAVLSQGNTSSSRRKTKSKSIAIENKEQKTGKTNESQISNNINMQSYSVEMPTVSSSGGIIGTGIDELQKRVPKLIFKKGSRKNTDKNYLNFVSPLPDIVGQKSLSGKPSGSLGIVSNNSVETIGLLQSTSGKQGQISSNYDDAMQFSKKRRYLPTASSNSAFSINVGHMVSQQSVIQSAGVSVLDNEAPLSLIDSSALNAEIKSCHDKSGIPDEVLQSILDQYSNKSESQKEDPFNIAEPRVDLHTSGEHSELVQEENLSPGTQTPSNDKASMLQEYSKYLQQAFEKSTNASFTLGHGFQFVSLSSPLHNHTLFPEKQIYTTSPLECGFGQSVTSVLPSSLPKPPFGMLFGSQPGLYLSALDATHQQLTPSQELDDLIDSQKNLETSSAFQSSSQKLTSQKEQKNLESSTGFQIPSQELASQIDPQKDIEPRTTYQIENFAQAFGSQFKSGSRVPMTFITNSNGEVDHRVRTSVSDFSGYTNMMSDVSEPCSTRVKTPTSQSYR

B1: TEAD (dsDNA)
DNA 1: TCGGGACCCAGGCCTGGAATGTTTCCACC
DNA 2: GGTGGAAACATTCCAGGCCTGGGTCCCGA
B2: TATA-box (dsDNA)
DNA 1: GCGGCGCTCTATATAAGTGGGCAGTG
DNA 2: CACTGCCCACTTATATAGAGCGCCGC
B3: CTCF (dsDNA)
DNA 1: TCAGAGTGGCGGCCAGCAGGGGGCGCCCTTGCCAGA
DNA 2: TCTGGCAAGGGCGCCCCCTGCTGGCCGCCACTCTGA
B4: SP/KLF wild-type (dsDNA)
DNA 1: GAGAGCCCCGCCCCCTGGCT
DNA 2: AGCCAGGGGGCGGGGCTCTC

Key:
FOXL2 = target: T1, FOXL2; test: pulldown; 150 mM NaCl, 50 mM Tris pH 8, 0.25% NP-40, 1 mM TCEP; 4 C, 2 h; 100 ug HeLa nuclear lysate; conditions: protein: extract; label: 5' biotin (strand 1)
NFIA = NFIA (Homo sapiens, UniProt Q12857); test: as above; conditions: protein: extract; label: 5' biotin (strand 1)
KLF5 = KLF5 (Homo sapiens, UniProt Q13887); test: as above; conditions: protein: extract; label: 5' biotin (strand 1)
RBPJ = RBPJ (Homo sapiens, UniProt Q06330); test: as above; conditions: protein: extract; label: 5' biotin (strand 1)
KLF10 [1] = target: T3, KLF10 (Homo sapiens, UniProt Q13118); test: as above; conditions: protein: extract; label: 5' biotin (strand 1)
ZBTB7B = ZBTB7B (Homo sapiens, UniProt O15156); test: as above; conditions: protein: extract; label: 5' biotin (strand 1)
SP3 [2] = target: T4, SP3 (Homo sapiens, UniProt Q02447); test: as above; conditions: protein: extract; label: 5' biotin (strand 1)
KLF3 = KLF3 (Homo sapiens, UniProt P57682); test: as above; conditions: protein: extract; label: 5' biotin (strand 1)
KLF10 [3] = target: T3, KLF10; test: competition; 150 mM NaCl, 50 mM Tris pH 8, 0.25% NP-40, 1 mM TCEP; 4 C, 2 h; 100 ug HeLa nuclear lysate; free competitor against 200 nM immobilised SP/KLF wild-type; conditions: protein: extract
ZNF281 = target: T2, ZNF281; test: as above; conditions: protein: extract
SP3 [4] = target: T4, SP3; test: as above; conditions: protein: extract
KLF16 = KLF16 (Homo sapiens, UniProt Q9BXK1); test: as above; conditions: protein: extract
KLF13 = KLF13 (Homo sapiens, UniProt Q9Y2Y9); test: as above; conditions: protein: extract
TFAP2A = TFAP2A (Homo sapiens, UniProt P05549); test: as above; conditions: protein: extract
Sequence of TFAP2A (P05549 whole entry): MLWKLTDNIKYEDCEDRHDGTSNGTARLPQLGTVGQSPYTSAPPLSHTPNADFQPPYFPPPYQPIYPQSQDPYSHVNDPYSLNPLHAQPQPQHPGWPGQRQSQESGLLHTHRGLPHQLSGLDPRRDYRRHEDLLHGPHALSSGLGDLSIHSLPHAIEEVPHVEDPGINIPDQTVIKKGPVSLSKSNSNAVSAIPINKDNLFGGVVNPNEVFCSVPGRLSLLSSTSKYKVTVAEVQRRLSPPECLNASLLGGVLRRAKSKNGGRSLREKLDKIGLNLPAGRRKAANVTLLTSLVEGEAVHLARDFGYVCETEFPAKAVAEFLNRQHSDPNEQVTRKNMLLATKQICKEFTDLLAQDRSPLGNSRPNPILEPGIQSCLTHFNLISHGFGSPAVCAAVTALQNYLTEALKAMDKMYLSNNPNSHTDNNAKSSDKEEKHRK

T3 sequence (Q13118 whole entry): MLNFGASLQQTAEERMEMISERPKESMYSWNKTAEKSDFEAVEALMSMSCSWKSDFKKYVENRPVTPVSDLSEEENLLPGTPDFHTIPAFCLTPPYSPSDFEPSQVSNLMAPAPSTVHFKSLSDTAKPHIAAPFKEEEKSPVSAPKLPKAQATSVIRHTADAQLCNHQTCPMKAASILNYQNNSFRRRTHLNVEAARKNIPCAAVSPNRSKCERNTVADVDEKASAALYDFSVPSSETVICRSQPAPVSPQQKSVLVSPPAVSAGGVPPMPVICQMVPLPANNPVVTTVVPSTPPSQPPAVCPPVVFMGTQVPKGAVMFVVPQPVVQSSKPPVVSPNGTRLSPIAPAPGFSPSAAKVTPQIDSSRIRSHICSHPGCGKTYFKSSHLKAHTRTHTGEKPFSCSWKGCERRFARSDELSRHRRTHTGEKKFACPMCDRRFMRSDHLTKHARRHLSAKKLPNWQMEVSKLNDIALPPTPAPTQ
T4 sequence (Q02447 whole entry): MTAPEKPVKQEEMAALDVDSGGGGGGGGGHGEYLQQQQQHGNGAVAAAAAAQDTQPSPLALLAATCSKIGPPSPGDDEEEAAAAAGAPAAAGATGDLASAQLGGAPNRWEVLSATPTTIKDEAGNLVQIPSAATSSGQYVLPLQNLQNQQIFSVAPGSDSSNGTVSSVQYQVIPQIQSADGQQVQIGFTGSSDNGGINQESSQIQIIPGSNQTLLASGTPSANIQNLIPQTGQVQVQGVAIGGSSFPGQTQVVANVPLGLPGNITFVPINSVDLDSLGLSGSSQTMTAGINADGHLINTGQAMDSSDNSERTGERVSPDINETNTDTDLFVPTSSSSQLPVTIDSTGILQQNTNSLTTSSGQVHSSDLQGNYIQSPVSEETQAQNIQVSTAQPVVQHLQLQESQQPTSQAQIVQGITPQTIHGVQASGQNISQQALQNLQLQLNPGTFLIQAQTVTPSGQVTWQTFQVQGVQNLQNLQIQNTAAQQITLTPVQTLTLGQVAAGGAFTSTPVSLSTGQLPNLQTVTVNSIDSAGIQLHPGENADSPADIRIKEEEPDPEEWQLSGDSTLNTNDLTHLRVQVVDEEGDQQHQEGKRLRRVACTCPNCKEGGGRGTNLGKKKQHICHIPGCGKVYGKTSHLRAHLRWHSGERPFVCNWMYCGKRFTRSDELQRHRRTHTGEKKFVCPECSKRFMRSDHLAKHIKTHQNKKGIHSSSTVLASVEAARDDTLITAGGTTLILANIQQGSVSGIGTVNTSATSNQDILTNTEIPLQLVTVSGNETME
Sequence of KLF5 (Q13887 whole entry): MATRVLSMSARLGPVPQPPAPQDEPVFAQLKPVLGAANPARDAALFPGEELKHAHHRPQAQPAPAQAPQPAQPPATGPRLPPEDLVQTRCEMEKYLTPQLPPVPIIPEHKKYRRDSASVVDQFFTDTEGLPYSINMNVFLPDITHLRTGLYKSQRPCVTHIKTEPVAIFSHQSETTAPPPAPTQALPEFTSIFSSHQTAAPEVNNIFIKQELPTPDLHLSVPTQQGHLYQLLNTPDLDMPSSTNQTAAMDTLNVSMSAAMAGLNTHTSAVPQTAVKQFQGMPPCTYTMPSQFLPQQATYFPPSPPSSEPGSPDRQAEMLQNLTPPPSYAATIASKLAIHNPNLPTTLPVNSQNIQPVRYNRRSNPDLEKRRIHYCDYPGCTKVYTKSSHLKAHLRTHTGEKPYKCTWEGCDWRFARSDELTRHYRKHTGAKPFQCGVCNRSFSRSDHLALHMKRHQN
Sequence of ZBTB7B (O15156 whole entry): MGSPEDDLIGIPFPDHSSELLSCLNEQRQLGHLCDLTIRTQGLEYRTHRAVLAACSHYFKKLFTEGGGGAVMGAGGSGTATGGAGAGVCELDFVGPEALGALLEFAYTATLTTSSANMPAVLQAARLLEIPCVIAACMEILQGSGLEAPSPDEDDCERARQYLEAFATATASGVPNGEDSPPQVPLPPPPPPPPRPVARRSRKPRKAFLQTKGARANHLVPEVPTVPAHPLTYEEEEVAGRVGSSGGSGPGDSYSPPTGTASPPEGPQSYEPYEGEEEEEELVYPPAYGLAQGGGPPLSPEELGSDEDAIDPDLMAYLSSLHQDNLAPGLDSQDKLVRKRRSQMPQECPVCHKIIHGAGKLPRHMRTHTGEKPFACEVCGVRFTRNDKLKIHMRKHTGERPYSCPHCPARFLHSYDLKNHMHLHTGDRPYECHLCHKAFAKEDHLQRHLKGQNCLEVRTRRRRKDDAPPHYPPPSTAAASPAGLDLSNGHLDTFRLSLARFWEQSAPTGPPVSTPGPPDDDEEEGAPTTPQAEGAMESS
Sequence of NFIA (Q12857 whole entry): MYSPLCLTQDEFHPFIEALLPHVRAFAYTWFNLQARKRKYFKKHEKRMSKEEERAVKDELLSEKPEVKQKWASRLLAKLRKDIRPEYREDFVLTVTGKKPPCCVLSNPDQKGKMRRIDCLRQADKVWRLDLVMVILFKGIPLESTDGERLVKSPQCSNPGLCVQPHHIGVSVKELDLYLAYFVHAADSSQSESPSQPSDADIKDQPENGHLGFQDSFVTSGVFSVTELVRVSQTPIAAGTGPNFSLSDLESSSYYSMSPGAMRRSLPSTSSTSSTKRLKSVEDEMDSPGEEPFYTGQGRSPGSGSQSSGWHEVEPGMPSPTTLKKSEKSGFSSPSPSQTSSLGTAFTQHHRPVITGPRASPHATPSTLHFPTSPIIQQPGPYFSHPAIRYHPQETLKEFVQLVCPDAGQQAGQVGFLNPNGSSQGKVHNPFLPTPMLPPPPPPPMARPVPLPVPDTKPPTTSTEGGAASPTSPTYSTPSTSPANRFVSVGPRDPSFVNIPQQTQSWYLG
Sequence of RBPJ (Q06330 whole entry): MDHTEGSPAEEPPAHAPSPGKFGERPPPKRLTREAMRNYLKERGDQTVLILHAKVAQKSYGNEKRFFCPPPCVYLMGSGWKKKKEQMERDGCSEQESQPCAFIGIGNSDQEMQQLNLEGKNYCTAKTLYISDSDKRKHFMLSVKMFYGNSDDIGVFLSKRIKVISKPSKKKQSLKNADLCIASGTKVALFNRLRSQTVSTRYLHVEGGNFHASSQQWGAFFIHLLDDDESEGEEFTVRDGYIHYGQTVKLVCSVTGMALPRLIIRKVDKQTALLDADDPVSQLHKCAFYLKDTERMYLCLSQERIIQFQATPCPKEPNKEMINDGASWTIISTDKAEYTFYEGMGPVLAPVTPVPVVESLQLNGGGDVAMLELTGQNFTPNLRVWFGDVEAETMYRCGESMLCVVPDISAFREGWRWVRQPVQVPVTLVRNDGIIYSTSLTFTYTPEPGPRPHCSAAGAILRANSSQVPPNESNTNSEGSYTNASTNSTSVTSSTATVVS
Sequence of KLF3 (P57682 whole entry): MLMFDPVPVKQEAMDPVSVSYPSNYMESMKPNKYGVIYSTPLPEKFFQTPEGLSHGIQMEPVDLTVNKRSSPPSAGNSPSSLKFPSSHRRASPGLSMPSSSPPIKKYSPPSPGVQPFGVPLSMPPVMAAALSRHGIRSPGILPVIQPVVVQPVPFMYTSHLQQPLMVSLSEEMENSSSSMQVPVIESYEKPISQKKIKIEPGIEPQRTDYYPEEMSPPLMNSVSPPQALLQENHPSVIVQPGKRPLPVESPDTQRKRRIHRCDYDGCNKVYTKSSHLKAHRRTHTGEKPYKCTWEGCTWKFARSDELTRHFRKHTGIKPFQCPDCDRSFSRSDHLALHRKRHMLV
Sequence of KLF16 (Q9BXK1 whole entry): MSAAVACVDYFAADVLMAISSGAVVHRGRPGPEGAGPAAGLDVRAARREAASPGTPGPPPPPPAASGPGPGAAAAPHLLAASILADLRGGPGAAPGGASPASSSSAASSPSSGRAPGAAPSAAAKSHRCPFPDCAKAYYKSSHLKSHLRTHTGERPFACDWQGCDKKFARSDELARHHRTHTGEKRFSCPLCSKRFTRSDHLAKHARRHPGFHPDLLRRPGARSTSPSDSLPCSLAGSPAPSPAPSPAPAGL
Sequence of KLF13 (Q9Y2Y9 whole entry): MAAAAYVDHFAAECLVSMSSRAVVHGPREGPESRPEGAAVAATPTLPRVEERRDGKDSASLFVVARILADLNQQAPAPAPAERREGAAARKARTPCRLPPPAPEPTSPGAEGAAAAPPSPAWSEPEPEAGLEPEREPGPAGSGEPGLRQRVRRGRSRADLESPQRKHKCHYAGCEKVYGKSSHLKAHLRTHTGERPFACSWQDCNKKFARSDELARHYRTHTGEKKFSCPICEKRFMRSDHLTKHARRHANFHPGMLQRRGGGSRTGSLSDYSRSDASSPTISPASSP

Binder	apparent K (half saturation) (FOXL2) [nM]	apparent K (half saturation) (NFIA) [nM]	apparent K (half saturation) (KLF5) [nM]	apparent K (half saturation) (RBPJ) [nM]	apparent K (half saturation) (KLF10 [1]) [nM]	apparent K (half saturation) (ZBTB7B) [nM]	apparent K (half saturation) (SP3 [2]) [nM]	apparent K (half saturation) (KLF3) [nM]	IC50 (KLF10 [3]) [nM]	IC50 (ZNF281) [nM]	IC50 (SP3 [4]) [nM]	IC50 (KLF16) [nM]	IC50 (KLF13) [nM]	IC50 (TFAP2A) [nM]
B1	140	119	101	208										
B2	140		219		84.5	230								
B3		72.8	25.3	376	41.2	39.2	72	124						
B4			37				19.3	61.9	111	176	147	176	86.2	215
